Paper PMC6261655, “Harnessing a previously unidentified capability of bacterial allosteric transcription factors for sensing diverse small molecules in vitro” (Science Advances, 2018)

T1: HucR (Deinococcus radiodurans, UniProt Q9RV71)
T1 sequence (Q9RV71 1-181): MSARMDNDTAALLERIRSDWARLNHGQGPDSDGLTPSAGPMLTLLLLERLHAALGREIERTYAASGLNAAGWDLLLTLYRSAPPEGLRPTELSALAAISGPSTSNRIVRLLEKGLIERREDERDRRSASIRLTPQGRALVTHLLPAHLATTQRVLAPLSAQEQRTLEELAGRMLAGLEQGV

T2: AvaR1 (Streptomyces avermitilis, UniProt Q82H41 1-234)
T2 sequence: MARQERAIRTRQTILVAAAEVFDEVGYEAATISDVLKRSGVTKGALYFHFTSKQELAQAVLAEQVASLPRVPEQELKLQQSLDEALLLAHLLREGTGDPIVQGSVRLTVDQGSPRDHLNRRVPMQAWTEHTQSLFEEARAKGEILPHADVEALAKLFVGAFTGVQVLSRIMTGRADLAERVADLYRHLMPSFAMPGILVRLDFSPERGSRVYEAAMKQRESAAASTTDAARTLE

B1: DNATetR-0 (dsDNA)
DNA 1: CCTCCGATTTTCAGATTGACACTCTATCATTGATAGGGATATATTCCAACTCTATCAAT
DNA 2: ATTGATAGAGTTGGAATATATCCCTATCAATGATAGAGTGTCAATCTGAAAATCGGAGG
B2: DNATetR-6 (dsDNA)
DNA 1: CCTCCGATTTTCAGATTGACACTCTATCATTGATAGGGATATATTCCAACTCTATCAAT
DNA 2: ATTGATAGAGTTGGAATATATCCCTATCAA
DNA 3: TGATAGAGTGTCAATCTGAAAATCGGAGG
modifications: nick in bottom strand
B3: DNATetR-1 (dsDNA)
DNA 1: CCTCCGATTTTCAGATTGACACTCTATCATTGATAGGGATATATTCCAACTCTATCAAT
DNA 2: ATTGATAGAGTTGGAATATATCCCTATCAATGATAGAGTG
DNA 3: TCAATCTGAAAATCGGAGG
modifications: nick in bottom strand
B4: DNATetR-8 (dsDNA)
DNA 1: CCTCCGATTTTCAGATTGACACTCTATCATTGATAGGGATATATTCCAACTCTATCAAT
DNA 2: ATTGATAGAGTTGGAATATATCCCTAT
DNA 3: CAATGATAGAGTGTCAATCTGAAAATCGGAGG
modifications: nick in bottom strand
B5: DNATetR-2 (dsDNA)
DNA 1: CCTCCGATTTTCAGATTGACACTCTATCATTGATAGGGATATATTCCAACTCTATCAAT
DNA 2: ATTGATAGAGTTGGAATATATCCCTATCAATGATAGAG
DNA 3: TGTCAATCTGAAAATCGGAGG
modifications: nick in bottom strand
B6: DNATetR-5 (dsDNA)
DNA 1: CCTCCGATTTTCAGATTGACACTCTATCATTGATAGGGATATATTCCAACTCTATCAAT
DNA 2: ATTGATAGAGTTGGAATATATCCCTATCAATG
DNA 3: ATAGAGTGTCAATCTGAAAATCGGAGG
modifications: nick in bottom strand
B7: DNATetR-3 (dsDNA)
DNA 1: CCTCCGATTTTCAGATTGACACTCTATCATTGATAGGGATATATTCCAACTCTATCAAT
DNA 2: ATTGATAGAGTTGGAATATATCCCTATCAATGATAG
DNA 3: AGTGTCAATCTGAAAATCGGAGG
modifications: nick in bottom strand
B8: DNATetR-9 (dsDNA)
DNA 1: CCTCCGATTTTCAGATTGACACTCTATCATTGATAGGGATATATTCCAACTCTATCAAT
DNA 2: ATTGATAGAGTTGGAATATATCCCT
DNA 3: ATCAATGATAGAGTGTCAATCTGAAAATCGGAGG
modifications: nick in bottom strand
B9: DNATetR-10 (dsDNA)
DNA 1: CCTCCGATTTTCAGATTGACACTCTATCATTGATAGGGATATATTCCAACTCTATCAAT
DNA 2: ATTGATAGAGTTGGAATATATCC
DNA 3: CTATCAATGATAGAGTGTCAATCTGAAAATCGGAGG
modifications: nick in bottom strand
B10: DNATetR-11 (dsDNA)
DNA 1: CCTCCGATTTTCAGATTGACACTCTATCATTGATAGGGATATATTCCAACTCTATCAAT
DNA 2: ATTGATAGAGTTGGAATATAT
DNA 3: CCCTATCAATGATAGAGTGTCAATCTGAAAATCGGAGG
modifications: nick in bottom strand
B11: DNATetR-12 (dsDNA)
DNA 1: CCTCCGATTTTCAGATTGACACTCTATCATTGATAGGGATATATTCCAACTCTATCAAT
DNA 2: ATTGATAGAGTTGGAATAT
DNA 3: ATCCCTATCAATGATAGAGTGTCAATCTGAAAATCGGAGG
modifications: nick in bottom strand
B12: DNATetR-7 (dsDNA)
DNA 1: CCTCCGATTTTCAGATTGACACTCTATCATTGATAGGGATATATTCCAACTCTATCAAT
DNA 2: ATTGATAGAGTTGGAATATATCCCTATCA
DNA 3: ATGATAGAGTGTCAATCTGAAAATCGGAGG
modifications: nick in bottom strand
B13: DNATetR-4 (dsDNA)
DNA 1: CCTCCGATTTTCAGATTGACACTCTATCATTGATAGGGATATATTCCAACTCTATCAAT
DNA 2: ATTGATAGAGTTGGAATATATCCCTATCAATGAT
DNA 3: AGAGTGTCAATCTGAAAATCGGAGG
modifications: nick in bottom strand
B14: DNAAvaR1-0 (dsDNA)
DNA 1: CGCAAGAGGGACTTGAAGACAAAACCGTCTAGTACGTATCTTTGACCTCCAGCTCTTCC
DNA 2: GGAAGAGCTGGAGGTCAAAGATACGTACTAGACGGTTTTGTCTTCAAGTCCCTCTTGCG
B15: DNAAvaR1-11 (dsDNA)
DNA 1: CGCAAGAGGGACTTGAAGACAAAACCGTCTAGTACGTATCTTTGACCTCCAGCTCTTCC
DNA 2: GGAAGAGCTGGAGGTCAAAG
DNA 3: ATACGTACTAGACGGTTTTGTCTTCAAGTCCCTCTTGCG
modifications: nick in bottom strand
B16: DNAAvaR1-2 (dsDNA)
DNA 1: CGCAAGAGGGACTTGAAGACAAAACCGTCTAGTACGTATCTTTGACCTCCAGCTCTTCC
DNA 2: GGAAGAGCTGGAGGTCAAAGATACGTACTAGACGGTTT
DNA 3: TGTCTTCAAGTCCCTCTTGCG
modifications: nick in bottom strand
B17: DNAAvaR1-3 (dsDNA)
DNA 1: CGCAAGAGGGACTTGAAGACAAAACCGTCTAGTACGTATCTTTGACCTCCAGCTCTTCC
DNA 2: GGAAGAGCTGGAGGTCAAAGATACGTACTAGACGGT
DNA 3: TTTGTCTTCAAGTCCCTCTTGCG
modifications: nick in bottom strand
B18: DNAAvaR1-10 (dsDNA)
DNA 1: CGCAAGAGGGACTTGAAGACAAAACCGTCTAGTACGTATCTTTGACCTCCAGCTCTTCC
DNA 2: GGAAGAGCTGGAGGTCAAAGAT
DNA 3: ACGTACTAGACGGTTTTGTCTTCAAGTCCCTCTTGCG
modifications: nick in bottom strand
B19: DNAAvaR1-7 (dsDNA)
DNA 1: CGCAAGAGGGACTTGAAGACAAAACCGTCTAGTACGTATCTTTGACCTCCAGCTCTTCC
DNA 2: GGAAGAGCTGGAGGTCAAAGATACGTAC
DNA 3: TAGACGGTTTTGTCTTCAAGTCCCTCTTGCG
modifications: nick in bottom strand
B20: DNAAvaR1-4 (dsDNA)
DNA 1: CGCAAGAGGGACTTGAAGACAAAACCGTCTAGTACGTATCTTTGACCTCCAGCTCTTCC
DNA 2: GGAAGAGCTGGAGGTCAAAGATACGTACTAGACG
DNA 3: GTTTTGTCTTCAAGTCCCTCTTGCG
modifications: nick in bottom strand
B21: DNAAvaR1-6 (dsDNA)
DNA 1: CGCAAGAGGGACTTGAAGACAAAACCGTCTAGTACGTATCTTTGACCTCCAGCTCTTCC
DNA 2: GGAAGAGCTGGAGGTCAAAGATACGTACTA
DNA 3: GACGGTTTTGTCTTCAAGTCCCTCTTGCG
modifications: nick in bottom strand
B22: DNAAvaR1-1 (dsDNA)
DNA 1: CGCAAGAGGGACTTGAAGACAAAACCGTCTAGTACGTATCTTTGACCTCCAGCTCTTCC
DNA 2: GGAAGAGCTGGAGGTCAAAGATACGTACTAGACGGTTTTG
DNA 3: TCTTCAAGTCCCTCTTGCG
modifications: nick in bottom strand
B23: DNAAvaR1-12 (dsDNA)
DNA 1: CGCAAGAGGGACTTGAAGACAAAACCGTCTAGTACGTATCTTTGACCTCCAGCTCTTCC
DNA 2: GGAAGAGCTGGAGGTCAA
DNA 3: AGATACGTACTAGACGGTTTTGTCTTCAAGTCCCTCTTGCG
modifications: nick in bottom strand
B24: DNAAvaR1-5 (dsDNA)
DNA 1: CGCAAGAGGGACTTGAAGACAAAACCGTCTAGTACGTATCTTTGACCTCCAGCTCTTCC
DNA 2: GGAAGAGCTGGAGGTCAAAGATACGTACTAGA
DNA 3: CGGTTTTGTCTTCAAGTCCCTCTTGCG
modifications: nick in bottom strand
B25: DNAAvaR1-9 (dsDNA)
DNA 1: CGCAAGAGGGACTTGAAGACAAAACCGTCTAGTACGTATCTTTGACCTCCAGCTCTTCC
DNA 2: GGAAGAGCTGGAGGTCAAAGATAC
DNA 3: GTACTAGACGGTTTTGTCTTCAAGTCCCTCTTGCG
modifications: nick in bottom strand
B26: DNAAvaR1-8 (dsDNA)
DNA 1: CGCAAGAGGGACTTGAAGACAAAACCGTCTAGTACGTATCTTTGACCTCCAGCTCTTCC
DNA 2: GGAAGAGCTGGAGGTCAAAGATACGT
DNA 3: ACTAGACGGTTTTGTCTTCAAGTCCCTCTTGCG
modifications: nick in bottom strand

Each molecule was assayed against T1, HucR (assay: isothermal titration calorimetry). Details: not given.
Assay type: binding

| Molecule | Kd [nM] |
| --- | --- |
| O=c1[nH]c(=O)c2[nH]c(=O)[nH]c2[nH]1 [UA] | 9350 ± 990 |

Each molecule was assayed against HosA (Escherichia coli, UniProt Q7ABA6) (assay: isothermal titration calorimetry). Details: not given.
HosA, sequence (Q7ABA6 whole entry, looked up): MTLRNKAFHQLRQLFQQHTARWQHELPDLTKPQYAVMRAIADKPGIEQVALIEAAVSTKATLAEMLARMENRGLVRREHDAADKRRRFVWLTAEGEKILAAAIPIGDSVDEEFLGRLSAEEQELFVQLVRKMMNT
Assay type: binding

| Molecule | Kd [nM] |
| --- | --- |
| O=C(O)c1ccc(O)cc1 [4-HBA] | 4740 ± 250 |

What follows are molecules tested against TetR (Escherichia coli, UniProt P04483 1-207) (assay: BLI; BLI: HBS-EP (10 mM Hepes, 15 mM NaCl, 3 mM EDTA, 0.005% Tween 20, 0.1% BSA, pH 7.4), temperature not stated; EMSA: 20 mM Tris-HCl pH 7.5, 2 mM DTT, 5 mM MgCl2). Details: protein: recombinant; chain copies: 2; label: 5'-biotin on strand 1; blunt.
TetR, sequence (P04483 whole entry): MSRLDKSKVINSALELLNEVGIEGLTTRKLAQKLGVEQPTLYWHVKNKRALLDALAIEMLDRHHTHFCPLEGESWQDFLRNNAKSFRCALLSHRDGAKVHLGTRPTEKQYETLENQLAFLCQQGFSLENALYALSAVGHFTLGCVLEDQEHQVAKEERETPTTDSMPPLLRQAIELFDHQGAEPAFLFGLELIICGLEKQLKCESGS

| Molecule | Kd [nM] |
| --- | --- |
| B1 | 1.08 ± 0.06 |

Same assay, conditions: protein: recombinant; chain copies: 2; label: 5'-biotin on strand 1; blunt, nicked 1:2 1:3

| Molecule | Kd [nM] |
| --- | --- |
| B2 | 2 ± 0.59 |
| B3 | 1.3 ± 0.04 |
| B4 | 1.52 ± 0.044 |
| B5 | 1.78 ± 0.07 |
| B6 | 1.91 ± 0.03 |
| B7 | 1.72 ± 0.11 |
| B8 | 0.67 ± 0.03 |
| B9 | 1.22 ± 0.03 |
| B10 | 1.58 ± 0.04 |
| B11 | 1.1 ± 0.05 |
| B12 | 1.85 ± 0.06 |
| B13 | 1.89 ± 0.07 |

What follows are molecules tested against T2, AvaR1 in the same assay as above. Details: protein: recombinant; label: 5'-biotin on strand 1; blunt.

| Molecule | Kd [nM] |
| --- | --- |
| B14 | 11.7 ± 0.028 |

Same assay, conditions: protein: recombinant; label: 5'-biotin on strand 1; blunt, nicked 1:2 1:3

| Molecule | Kd [nM] |
| --- | --- |
| B15 | 13 ± 0.027 |
| B16 | 15.1 ± 0.034 |
| B17 | 17 ± 0.052 |
| B18 | 11 ± 0.026 |
| B19 | 10.8 ± 0.03 |
| B20 | 16 ± 0.032 |
| B21 | 12.6 ± 0.021 |
| B22 | 18.3 ± 0.052 |
| B23 | 8.33 ± 0.015 |
| B24 | 14 ± 0.027 |
| B25 | 22.2 ± 0.245 |
| B26 | 14.1 ± 0.025 |
